Target: BG505.SOSIP.664-AviB (HIV-1 (clade A, BG505)) (UniProt Q2N0S6)
Test: BLI

Substance: BF520.1 matureVHnaïveVK mAb (antibody)
- Kd: 8.95 nM

Substance: BF520.1 naïveVHmatureVK mAb (antibody)
- Kd: < 0.001 nM

Reference: paper doi:10.1101/416032
